Tests used:
[1] = target: T1, Recombinant FOLR1 (rFOLR1), extracellular domain of folate receptor alpha-1 fused to IgG4-Fc; assay: BLI
[2] = target: T1, Recombinant FOLR1 (rFOLR1), …; assay: ELISA
[3] = target: T1, Recombinant FOLR1 (rFOLR1), …; assay: ELISA; remark: listed apart in the source
[4] = target: T1, Recombinant FOLR1 (rFOLR1), …; assay: BLI; remark: listed apart in the source
[5] = target: T2, Recombinant DR5 (rDR5), extracellular domain of DR5/TRAIL-R2 fused to IgG4-Fc; assay: ELISA
[6] = target: T2, Recombinant DR5 (rDR5), extracellular …; assay: BLI
[7] = target: T2, Recombinant DR5 (rDR5), extracellular …; assay: ELISA; remark: listed apart in the source
[8] = target: T2, Recombinant DR5 (rDR5), extracellular …; assay: BLI; remark: listed apart in the source
[9] = target: T2, Recombinant DR5 (rDR5), extracellular …; assay: BLI; remark: listed apart in the source
[10] = target: T2, Recombinant DR5 (rDR5), extracellular …; assay: BLI; remark: listed apart in the source
[11] = target: T2, Recombinant DR5 (rDR5), extracellular …; assay: ELISA; remark: listed apart in the source
[12] = target: T2, Recombinant DR5 (rDR5), extracellular …; assay: ELISA; remark: listed apart in the source

B1: Farletuzumab (humanized anti-FOLR1 monoclonal antibody), recombinant human IgG1 (antibody, V domains shown)
VH: EVQLVESGGGVVQPGRSLRLSCSASGFTFSGYGLSWVRQAPGKGLEWVAMISSGGSYTYYADSVKGRFAISRDNAKNTLFLQMDSLRPEDTGVYFCARHGDDPAWFAYWGQGTPVTVSS
VL: DIQLTQSPSSLSASVGDRVTITCSVSSSISSNNLHWYQQKPGKAPKPWIYGTSNLASGVPSRFSGSGSGTDYTFTISSLQPEDIATYYCQQWSSYPYMYTFGQGTKVEIKR
For B1, the Kd [1] was 15 nM, the Kd [2] was 0.42 nM and the Kd [3] was 0.985 nM. It also gave a Kd [4] of 15 nM.

B2: BaCa-3 (dual-variable-domain bispecific, lexatumumab variable domains outer, farletuzumab inner) (bispecific antibody)
heavy: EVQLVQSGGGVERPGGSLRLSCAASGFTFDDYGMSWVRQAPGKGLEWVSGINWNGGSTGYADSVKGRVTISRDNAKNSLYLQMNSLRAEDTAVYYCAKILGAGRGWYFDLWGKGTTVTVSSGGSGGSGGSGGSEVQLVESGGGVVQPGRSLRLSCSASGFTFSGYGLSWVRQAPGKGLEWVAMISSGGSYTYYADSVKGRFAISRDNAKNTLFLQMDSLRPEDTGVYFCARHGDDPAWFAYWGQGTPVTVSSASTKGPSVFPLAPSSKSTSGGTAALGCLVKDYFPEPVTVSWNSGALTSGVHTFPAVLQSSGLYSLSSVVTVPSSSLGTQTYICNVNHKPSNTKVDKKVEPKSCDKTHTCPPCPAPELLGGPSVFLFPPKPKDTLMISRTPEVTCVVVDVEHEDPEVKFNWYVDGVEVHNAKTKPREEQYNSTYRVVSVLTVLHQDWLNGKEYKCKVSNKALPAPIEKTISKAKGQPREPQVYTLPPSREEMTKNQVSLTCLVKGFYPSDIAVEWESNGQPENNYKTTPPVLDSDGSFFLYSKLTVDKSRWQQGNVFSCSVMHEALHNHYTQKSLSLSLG
light: SSELTQDPAVSVALGQTVRITCQGDSLRSYYASWYQQKPGQAPVLVIYGKNNRPSGIPDRFSGSSSGNTASLTITGAQAEDEADYYCNSRDSSGNHVVFGGGTKLTVLGGSGGSGGSGGSDIQLTQSPSSLSASVGDRVTITCSVSSSISSNNLHWYQQKPGKAPKPWIYGTSNLASGVPSRFSGSGSGTDYTFTISSLQPEDIATYYCQQWSSYPYMYTFGQGTKVEIKRTVAAPSVFIFPPSDEQLKSGTASVVCLLNNFYPREAKVQWKVDNALQSGNSQESVTEQDSKDSTYSLSSTLTLSKADYEKHKVYACEVTHQGLSSPVTKSFNRGEC
Work on B2 yielded a Kd [2] of 0.392 nM and a Kd [5] of 0.538 nM.

B3: BaCa-1 (Bispecific-Anchored Cytotoxicity-Activator-1; farletuzumab IgG1 with a lexatumumab scFv at the C-terminus of the heavy chain) (bispecific antibody)
heavy: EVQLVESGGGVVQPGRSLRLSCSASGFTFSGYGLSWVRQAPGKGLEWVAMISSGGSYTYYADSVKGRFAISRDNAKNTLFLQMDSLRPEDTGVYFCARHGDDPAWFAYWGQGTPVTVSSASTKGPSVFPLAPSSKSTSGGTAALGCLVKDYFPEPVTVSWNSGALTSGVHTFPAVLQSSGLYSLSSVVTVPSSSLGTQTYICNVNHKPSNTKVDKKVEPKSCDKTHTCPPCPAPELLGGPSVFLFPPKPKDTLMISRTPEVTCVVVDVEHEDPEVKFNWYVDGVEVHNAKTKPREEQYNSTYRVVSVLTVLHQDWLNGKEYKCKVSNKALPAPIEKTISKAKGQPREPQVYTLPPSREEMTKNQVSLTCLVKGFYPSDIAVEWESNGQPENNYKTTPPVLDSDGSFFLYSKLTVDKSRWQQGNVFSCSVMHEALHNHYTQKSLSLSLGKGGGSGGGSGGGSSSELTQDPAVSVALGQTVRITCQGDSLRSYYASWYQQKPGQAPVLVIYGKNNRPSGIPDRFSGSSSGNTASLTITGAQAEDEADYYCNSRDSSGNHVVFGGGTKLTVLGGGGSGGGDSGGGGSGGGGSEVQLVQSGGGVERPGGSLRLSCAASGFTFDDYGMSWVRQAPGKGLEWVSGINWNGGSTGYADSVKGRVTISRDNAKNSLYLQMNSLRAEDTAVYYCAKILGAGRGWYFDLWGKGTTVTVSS
light: DIQLTQSPSSLSASVGDRVTITCSVSSSISSNNLHWYQQKPGKAPKPWIYGTSNLASGVPSRFSGSGSGTDYTFTISSLQPEDIATYYCQQWSSYPYMYTFGQGTKVEIKRTVAAPSVFIFPPSDEQLKSGTASVVCLLNNFYPREAKVQWKVDNALQSGNSQESVTEQDSKDSTYSLSSTLTLSKADYEKHKVYACEVTHQGLSSPVTKSFNRGEC
With B3 the Kd [1] was 12 nM, the Kd [6] was 3.1 nM and the Kd [2] was 0.61 nM. The Kd [5] was 0.73 nM, the Kd [3] was 1.21 nM and the Kd [7] was 1.41 nM. The Kd [4] was 12 nM and the Kd [8] was 3.1 nM.

B4: BaCa antibody with LALA-Fc (L234A-L235A) mutations in the CH2 domain (bispecific antibody)
heavy: EVQLVESGGGVVQPGRSLRLSCSASGFTFSGYGLSWVRQAPGKGLEWVAMISSGGSYTYYADSVKGRFAISRDNAKNTLFLQMDSLRPEDTGVYFCARHGDDPAWFAYWGQGTPVTVSSASTKGPSVFPLAPSSKSTSGGTAALGCLVKDYFPEPVTVSWNSGALTSGVHTFPAVLQSSGLYSLSSVVTVPSSSLGTQTYICNVNHKPSNTKVDKKVEPKSCDKTHTCPPCPAPEAAGGPSVFLFPPKPKDTLMISRTPEVTCVVVDVEHEDPEVKFNWYVDGVEVHNAKTKPREEQYNSTYRVVSVLTVLHQDWLNGKEYKCKVSNKALPAPIEKTISKAKGQPREPQVYTLPPSREEMTKNQVSLTCLVKGFYPSDIAVEWESNGQPENNYKTTPPVLDSDGSFFLYSKLTVDKSRWQQGNVFSCSVMHEALHNHYTQKSLSLSLGKGGGSGGGSGGGSSSELTQDPAVSVALGQTVRITCQGDSLRSYYASWYQQKPGQAPVLVIYGKNNRPSGIPDRFSGSSSGNTASLTITGAQAEDEADYYCNSRDSSGNHVVFGGGTKLTVLGGGGSGGGDSGGGGSGGGGSEVQLVQSGGGVERPGGSLRLSCAASGFTFDDYGMSWVRQAPGKGLEWVSGINWNGGSTGYADSVKGRVTISRDNAKNSLYLQMNSLRAEDTAVYYCAKILGAGRGWYFDLWGKGTTVTVSS
light: B3 light
Work on B4 yielded a Kd [3] of 0.904 nM and a Kd [7] of 1.65 nM.

B5: BaCa-2 (knob/hole single-chain-linked bispecific, monovalent anti-FOLR1 and anti-DR5) (bispecific antibody)
chain 1: not shown
chain 2: SSELTQDPAVSVALGQTVRITCQGDSLRSYYASWYQQKPGQAPVLVIYGKNNRPSGIPDRFSGSSSGNTASLTITGAQAEDEADYYCNSRDSSGNHVVFGGGTKLTVLRTVAAPSVFIFPPSDEQLKSGTASVVCLLNNFYPREAKVQWKVDNALQSGNSQESVTEQDSKDSTYSLSSTLTLSKADYEKHKVYACEVTHQGLSSPVTKSFNRGECGGGGSGGGGSGGGGSGGGGSGGGGSGGGGSGGGGSGGGGSGGGGSGGGGSEVQLVQSGGGVERPGGSLRLSCAASGFTFDDYGMSWVRQAPGKGLEWVSGINWNGGSTGYADSVKGRVTISRDNAKNSLYLQMNSLRAEDTAVYYCAKILGAGRGWYFDLWGKGTTVTVSSASTKGPSVFPLAPSSKSTSGGTAALGCLVKDYFPEPVTVSWNSGALTSGVHTFPAVLQSSGLYSLSSVVTVPSSSLGTQTYICNVNHKPSNTKVDKRVEPKSCDKTHTCPPCPAPELLGGPSVFLFPPKPKDTLMISRTPEVTCVVVDVSHEDPEVKFNWYVDGVEVHNAKTKPREEQYNSTYRVVSVLTVLHQDWLNGKEYKCKVSNKALPAPIEKTISKAKGQPREPQVYTLPPSREEMTKNQVSLTCLVKGFYPSDIAVEWESNGQPENNYKTTPPVLDSDGSFFLTSKLTVDKSRWQQGNVFSCSVMHEALHNRFTQKSLSLSPG
B5 gave a Kd [2] of 0.0887 nM and a Kd [5] of 1.08 nM.

B6: Lexatumumab (anti-TRAIL-R2/DR5 antibody), recombinant human IgG1 (antibody, V domains shown)
VH: EVQLVQSGGGVERPGGSLRLSCAASGFTFDDYGMSWVRQAPGKGLEWVSGINWNGGSTGYADSVKGRVTISRDNAKNSLYLQMNSLRAEDTAVYYCAKILGAGRGWYFDLWGKGTTVTVSS
VL: SSELTQDPAVSVALGQTVRITCQGDSLRSYYASWYQQKPGQAPVLVIYGKNNRPSGIPDRFSGSSSGNTASLTITGAQAEDEADYYCNSRDSSGNHVVFGGGTKLTVLG
Binder B6 has a Kd [9] of 3.3 nM, a Kd [10] of 3.3 nM and a Kd [11] of 0.518 nM. It also gave a Kd [12] of 1.26 nM.
